Here are results for one substance from publication PMC2592534.

What all share (test): SPR
A general note: In SPR one partner is held on a chip, and binding of the other changes the refractive index at the surface.

The target of assay [1] is rat ficolin-A O54A (rat) (UniProt Q9WTS8).
For assay [2], the target named is rat ficolin-A P59A (rat) (UniProt Q9WTS8).
For assay [3], the target named is rat ficolin-A M57E (rat).
Assay [4] deals with rat ficolin-A M57S (rat).

Chain of rat MASP-2A (catalytically inactive MBL-associated serine protease-2, Ser613 to Ala) (Q9JJS8 20-685 S632A): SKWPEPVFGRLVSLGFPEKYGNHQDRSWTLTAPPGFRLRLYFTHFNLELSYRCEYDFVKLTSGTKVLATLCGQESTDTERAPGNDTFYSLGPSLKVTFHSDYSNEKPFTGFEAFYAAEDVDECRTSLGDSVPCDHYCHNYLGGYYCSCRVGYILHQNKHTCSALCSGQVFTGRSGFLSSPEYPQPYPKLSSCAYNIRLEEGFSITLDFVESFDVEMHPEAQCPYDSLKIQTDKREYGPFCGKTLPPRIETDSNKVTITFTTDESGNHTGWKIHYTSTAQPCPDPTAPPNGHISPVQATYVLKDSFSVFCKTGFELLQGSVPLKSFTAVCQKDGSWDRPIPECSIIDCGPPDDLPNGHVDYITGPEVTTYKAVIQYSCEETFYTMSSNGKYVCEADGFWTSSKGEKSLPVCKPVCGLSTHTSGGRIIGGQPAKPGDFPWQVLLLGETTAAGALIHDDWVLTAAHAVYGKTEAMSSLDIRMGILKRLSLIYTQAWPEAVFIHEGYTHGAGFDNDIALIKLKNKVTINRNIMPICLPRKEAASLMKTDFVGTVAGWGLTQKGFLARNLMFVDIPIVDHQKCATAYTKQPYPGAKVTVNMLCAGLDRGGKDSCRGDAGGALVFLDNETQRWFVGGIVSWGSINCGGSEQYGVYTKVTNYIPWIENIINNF
Chain of rat ficolin-A P59A (rat) (Q9WTS8 18-335 P76A): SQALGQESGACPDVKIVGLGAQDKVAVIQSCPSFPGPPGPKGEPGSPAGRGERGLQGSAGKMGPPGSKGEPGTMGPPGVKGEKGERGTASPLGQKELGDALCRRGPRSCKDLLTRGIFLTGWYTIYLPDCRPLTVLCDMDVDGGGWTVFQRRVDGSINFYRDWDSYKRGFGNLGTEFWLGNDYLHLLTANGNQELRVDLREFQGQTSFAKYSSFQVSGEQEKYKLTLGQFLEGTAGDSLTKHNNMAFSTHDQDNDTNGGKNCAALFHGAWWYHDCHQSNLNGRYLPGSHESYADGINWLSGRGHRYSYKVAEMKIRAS
Chain of rat ficolin-A O54A (rat) (Q9WTS8 18-335 P54A): as the sequence (Q9WTS8 18-335 P76A) above, with P37A, A59P counted along it

“rat MASP-2A (catalytically inactive MBL-associated serine protease-2, Ser613 to Ala) (from UniProt Q9JJS8 20-685) (enzyme)”: in assay [1], the KD2 (apparent, two-complex, parallel reaction model) stood at 153 nM. Further, in assay [2], the KD1 (apparent, two-complex, parallel reaction model) turned out to be 6.8 nM; the KD2 (apparent, two-complex, parallel reaction model) came out at 253 nM; the kon of complex 1 (two-complex, parallel reaction model) is 1.13e+06 M⁻¹ s⁻¹; the kon of complex 2 (two-complex, parallel reaction model) worked out at 42000 M⁻¹ s⁻¹. Further, in assay [3], the KD1 (apparent, two-complex, parallel reaction model) is 49 nM; the KD2 (apparent, two-complex, parallel reaction model) stood at 3.23 µM; the koff of complex 2 (two-complex, parallel reaction model) was 0.0094 s⁻¹. For the same substance, in assay [4], the KD1 (apparent, two-complex, parallel reaction model) turned out to be 11.6 nM; the KD2 (apparent, two-complex, parallel reaction model) amounted to 133 nM; the koff of complex 2 (two-complex, parallel reaction model) was found to be 0.0048 s⁻¹; the kon of complex 1 (two-complex, parallel reaction model) amounted to 410000 M⁻¹ s⁻¹. The kon of complex 2 (two-complex, parallel reaction model) in assay [4] worked out at 37000 M⁻¹ s⁻¹.
